Assay results from paper PMC6816099, “The finger loop of the SRA domain in the E3 ligase UHRF1 is a regulator of ubiquitin targeting and is required for the maintenance of DNA methylation”.

What was measured:
[1] = target: UHRF1 SRA SUVH5 finger swap (/ A. thaliana finger loop) (UniProt Q96T88); test: fluorescence polarization; details: 0.05% NP-40, 10 nM FAM-DNA (temperature not stated), ITC: 25 mM HEPES, 1 mM DTT, 25 C
UHRF1 SRA (WT) = target: T1, UHRF1 SRA (WT) (UniProt Q96T88 414-616); test: ITC; 35 uM protein in cell, 430 uM DNA in syringe; n 0.5-1.0; FP: 25 mM HEPES pH 7.5, 100 mM NaCl, 0.05% NP-40, 10 nM FAM-DNA (temperature not stated); ITC: 25 mM HEPES, 100 mM NaCl, 1 mM DTT, 25 C; details: protein: recombinant; tags: N-terminal His6-MBP (retained); blunt
T1 sequence: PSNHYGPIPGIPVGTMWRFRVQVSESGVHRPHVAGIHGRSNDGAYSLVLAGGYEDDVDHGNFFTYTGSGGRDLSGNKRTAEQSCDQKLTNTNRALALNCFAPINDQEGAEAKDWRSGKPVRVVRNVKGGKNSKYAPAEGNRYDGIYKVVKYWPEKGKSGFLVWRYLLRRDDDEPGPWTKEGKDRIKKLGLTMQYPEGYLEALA

Sequence of UHRF1 SRA SUVH5 finger swap (/ A. thaliana finger loop) (Q96T88 whole entry): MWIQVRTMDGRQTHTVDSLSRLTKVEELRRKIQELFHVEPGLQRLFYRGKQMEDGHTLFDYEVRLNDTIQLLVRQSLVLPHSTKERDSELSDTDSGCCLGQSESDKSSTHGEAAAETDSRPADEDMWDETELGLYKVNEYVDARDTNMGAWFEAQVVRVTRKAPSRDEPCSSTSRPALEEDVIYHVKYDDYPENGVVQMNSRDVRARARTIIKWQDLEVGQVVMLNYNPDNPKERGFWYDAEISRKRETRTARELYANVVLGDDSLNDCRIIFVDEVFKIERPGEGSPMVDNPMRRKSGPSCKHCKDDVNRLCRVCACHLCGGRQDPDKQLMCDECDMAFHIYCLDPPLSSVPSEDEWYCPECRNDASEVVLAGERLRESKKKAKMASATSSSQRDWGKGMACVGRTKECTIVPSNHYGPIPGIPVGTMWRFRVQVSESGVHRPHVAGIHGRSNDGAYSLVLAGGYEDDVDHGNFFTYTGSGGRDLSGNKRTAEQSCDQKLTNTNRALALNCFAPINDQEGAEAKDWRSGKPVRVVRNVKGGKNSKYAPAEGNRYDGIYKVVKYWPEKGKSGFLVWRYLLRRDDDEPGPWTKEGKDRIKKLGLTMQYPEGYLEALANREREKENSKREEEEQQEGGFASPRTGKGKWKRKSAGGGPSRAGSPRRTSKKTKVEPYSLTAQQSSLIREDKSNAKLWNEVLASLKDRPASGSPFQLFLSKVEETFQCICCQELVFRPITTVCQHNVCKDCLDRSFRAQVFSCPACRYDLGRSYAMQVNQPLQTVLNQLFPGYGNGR

“CCATGCGCTGAC (double strand) [He5mC (FAM)]” showed a Kd ([1]; 5mC at position 6 of strand 1, FP: 25 mM HEPES pH 7.5, 100 mM NaCl) of 200 nM.

For CCATGCGCTGAC (double strand) [UnDNA], the Kd ([1]; FP: 25 mM HEPES pH 7.5, 100 mM NaCl) was 200 nM.

CCATGCGCTGAC (double strand) [Sy5mC] was tested, and the Kd ([1]; 5mC at position 6 of strand 1 and position 6 of strand 2, FP: 25 mM HEPES pH 7.5, 100 mM NaCl) was 200 nM.

B1: He5mC (unlabelled, ITC) (dsDNA)
DNA 1: CCATGCGCTGAC
DNA 2: GTCAGCGCATGG
modifications: 5mC at position 6 of strand 1
B1: binds (UHRF1 SRA (WT)).
